Patent US20070275903A1 (Bristol-Myers Squibb, published 2007)
Blank lines part the entries; values can stand above or below the molecule they belong to. Starred links: 1 amine or outer side, 2 acyl side, 3 side chain; linkers in the order of their positions; H or OH if unused. Suc = O=C(CCC(=O)[*:2])[*:1]; Dox = doxorubicin

What was measured:
[1] = tested on: T1, Pyg-Leu-Ala-Leu-Dnr
T1 sequence: LAL

[2] = tested on: T2, Suc-Leu-Ala-Gly-Dox
T2 sequence: LAG

[3] = tested on: T3, Suc-Leu-Ala-Leu-Dnr
T3 sequence: LAL

[4] = tested on: T4, Suc-Leu-Ala-Leu-Dox
T4 sequence: LAL

[5] = tested on: T5, Suc-Leu-Thr-Leu-Dnr
T5 sequence: LTL

[6] = tested on: T6, Suc-Leu-Tyr-Leu-Dnr
T6 sequence: LYL

[7] = tested on: T7, Suc-Leu-Tyr-Leu-Dox
T7 sequence: LYL

[8] = tested on: T8, Suc-Met-Ala-Leu-Dnr
T8 sequence: MAL

[9] = tested on: T9, Suc-Met-Ala-Leu-Dox
T9 sequence: MAL

[10] = tested on: T10, Suc-Met-Gly-Ile-Dnr
T10 sequence: MGI

[11] = tested on: T11, Suc-Met-Gly-Leu-Dnr
T11 sequence: MGL

[12] = tested on: T12, Suc-Met-Gly-Phe-Dnr
T12 sequence: MGF

[13] = tested on: T13, Suc-Nle-Ala-Leu-Dnr
T13 sequence: XAL

[14] = tested on: T14, Suc-Nle-Gly-Phe-Dnr
T14 sequence: XGF

[15] = tested on: T15, Suc-Phe-Gly-Ile-Dnr
T15 sequence: FGI

[16] = tested on: T16, Suc-Phe-Gly-Leu-Dnr
T16 sequence: FGL

[17] = tested on: T17, Suc-Phe-Gly-Phe-Dnr
T17 sequence: FGF

[18] = tested on: T18, Suc-Tyr-Ala-Ile-Dnr
T18 sequence: YAI

[19] = tested on: T19, Suc-Tyr-Ala-Leu-Dnr
T19 sequence: YAL

[20] = tested on: T20, Suc-βAla-Leu-Ala-Leu-Dox
T20 sequence: ALAL

[21] = molecular target: CD10 expressed on Ramos and Namalwa B-cell lines (UniProt P08473 2-750, limits assumed); assay: cell-based or functional assay
Chain of CD10 expressed on Ramos and Namalwa B-cell lines (P08473 2-750 limits assumed): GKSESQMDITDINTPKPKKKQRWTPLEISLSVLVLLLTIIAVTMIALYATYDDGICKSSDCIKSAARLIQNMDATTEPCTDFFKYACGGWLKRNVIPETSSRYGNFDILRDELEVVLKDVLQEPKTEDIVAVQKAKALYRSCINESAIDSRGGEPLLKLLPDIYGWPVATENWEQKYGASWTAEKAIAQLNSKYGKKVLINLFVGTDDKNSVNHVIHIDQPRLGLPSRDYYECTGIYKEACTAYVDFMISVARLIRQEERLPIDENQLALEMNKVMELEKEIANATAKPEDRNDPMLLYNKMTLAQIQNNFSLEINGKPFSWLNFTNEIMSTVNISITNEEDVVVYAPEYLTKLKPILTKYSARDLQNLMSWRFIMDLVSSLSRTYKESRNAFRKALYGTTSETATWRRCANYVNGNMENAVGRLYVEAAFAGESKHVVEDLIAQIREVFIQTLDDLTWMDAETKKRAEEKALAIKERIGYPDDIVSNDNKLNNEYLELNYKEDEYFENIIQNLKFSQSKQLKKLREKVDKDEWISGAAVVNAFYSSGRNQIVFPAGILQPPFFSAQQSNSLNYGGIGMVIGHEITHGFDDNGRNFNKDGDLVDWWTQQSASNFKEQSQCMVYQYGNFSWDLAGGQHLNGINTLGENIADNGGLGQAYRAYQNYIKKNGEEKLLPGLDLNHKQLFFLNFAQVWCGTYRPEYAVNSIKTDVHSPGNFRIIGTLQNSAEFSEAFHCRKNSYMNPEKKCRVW

Molecule: trouase (carcinoma cell enzyme preparations; HeLa cell anion exchange fraction pool)
Relative Cleavage % [1]: 76%
cleavage by carcinoma enzyme preparations (HPLC, 2 hr at 37 C) [1]: cleaved by the trouase under the given conditions
Relative Cleavage % [2]: 40%
cleavage by carcinoma enzyme preparations (HPLC, 2 hr at 37 C) [2]: cleaved by the trouase under the given conditions
Relative Cleavage % [3]: 76%
cleavage by carcinoma enzyme preparations (HPLC, 2 hr at 37 C) [3]: cleaved by the trouase under the given conditions
Relative Cleavage % [4]: 62%
cleavage by carcinoma enzyme preparations (HPLC, 2 hr at 37 C) [4]: cleaved by the trouase under the given conditions
cleavage by carcinoma enzyme preparations (HPLC, 2 hr at 37 C) [5]: cleaved by the trouase under the given conditions
cleavage by carcinoma enzyme preparations (HPLC, 2 hr at 37 C) [6]: cleaved by the trouase under the given conditions
cleavage by carcinoma enzyme preparations (HPLC, 2 hr at 37 C) [7]: cleaved by the trouase under the given conditions
Relative Cleavage % [8]: 69%
cleavage by carcinoma enzyme preparations (HPLC, 2 hr at 37 C) [8]: cleaved by the trouase under the given conditions
Relative Cleavage % [9]: 49%
cleavage by carcinoma enzyme preparations (HPLC, 2 hr at 37 C) [9]: cleaved by the trouase under the given conditions
Relative Cleavage % [10]: 46%
cleavage by carcinoma enzyme preparations (HPLC, 2 hr at 37 C) [10]: cleaved by the trouase under the given conditions
Relative Cleavage % [11]: 55%
cleavage by carcinoma enzyme preparations (HPLC, 2 hr at 37 C) [11]: cleaved by the trouase under the given conditions
Relative Cleavage % [12]: 29%
cleavage by carcinoma enzyme preparations (HPLC, 2 hr at 37 C) [12]: cleaved by the trouase under the given conditions
cleavage by carcinoma enzyme preparations (HPLC, 2 hr at 37 C) [13]: cleaved by the trouase under the given conditions
Relative Cleavage % [14]: 17%
Relative Cleavage % [15]: 54%
cleavage by carcinoma enzyme preparations (HPLC, 2 hr at 37 C) [15]: cleaved by the trouase under the given conditions
Relative Cleavage % [16]: 24%
cleavage by carcinoma enzyme preparations (HPLC, 2 hr at 37 C) [16]: cleaved by the trouase under the given conditions
Relative Cleavage % [17]: 12%
cleavage by carcinoma enzyme preparations (HPLC, 2 hr at 37 C) [17]: cleaved by the trouase under the given conditions
Relative Cleavage % [18]: 25%
cleavage by carcinoma enzyme preparations (HPLC, 2 hr at 37 C) [18]: cleaved by the trouase under the given conditions
Relative Cleavage % [19]: 77%

Molecule: purified Porcine Kidney CD10 (Elastin Products Company)
% hydrolysis/10 hr [2]: 0%
Fraction hydrolyzed relative to standard [2]: 0
% hydrolysis/10 hr [4]: 8.3%
Fraction hydrolyzed relative to standard [4]: 0.75
% hydrolysis/10 hr [20]: 10.9%
Fraction hydrolyzed relative to standard [20]: 1

More lines, now with the values ahead:

IC50 (µM), 3H-thymidine incorporation, Namalwa (CD10pos) cells [21]: 2.27 µM
IC50 (µM), 3H-thymidine incorporation, Ramos (CD10pos) cells [21]: 2.63 µM
Ratio of IC50 Ball-1 (CD10neg):Namalwa (CD10pos) [21]: 35
Ratio of IC50 Ball-1 (CD10neg):Ramos (CD10pos) [21]: 30
Molecule: Suc-Leu-Ala-Leu-Dox [Suc-Leu-Ala-Leu-Dox]

IC50 (µM), 3H-thymidine incorporation, Namalwa (CD10pos) cells [21]: 17.3 µM
IC50 (µM), 3H-thymidine incorporation, Ramos (CD10pos) cells [21]: 22.7 µM
Ratio of IC50 Ball-1 (CD10neg):Namalwa (CD10pos) [21]: 1
Ratio of IC50 Ball-1 (CD10neg):Ramos (CD10pos) [21]: 1
Molecule: Suc-Leu-Ala-Gly-Dox [Suc-Leu-Ala-Gly-Dox]
